Blank lines part the entries; values can stand above or below the molecule they belong to.
How the values were obtained:
[1] = target: human CEACAM5 (R&D Systems, Inc.), biotinylated (human) (UniProt P06731); assay: SPR (Biacore T200), biotinylated human CEACAM5 captured on chip, Fab conjugate as analyte
[2] = target: human CEACAM5 (R&D Systems, Inc.), biotinylated (human) (UniProt P06731); assay: SPR (Biacore T200), biotinylated human CEACAM5 captured on chip, Fab as analyte
[3] = target: T1, human CEACAM5 (R&D Systems, Inc.), biotinylated (human, UniProt P06731 35-685, biotinylated with Biotin Labeling Kit-NH2; sites not stated); assay: as above
T1 construct: Bought protein, biotinylated and captured on the sensor chip with the Biotin CAPture Kit
T1 sequence (looked up): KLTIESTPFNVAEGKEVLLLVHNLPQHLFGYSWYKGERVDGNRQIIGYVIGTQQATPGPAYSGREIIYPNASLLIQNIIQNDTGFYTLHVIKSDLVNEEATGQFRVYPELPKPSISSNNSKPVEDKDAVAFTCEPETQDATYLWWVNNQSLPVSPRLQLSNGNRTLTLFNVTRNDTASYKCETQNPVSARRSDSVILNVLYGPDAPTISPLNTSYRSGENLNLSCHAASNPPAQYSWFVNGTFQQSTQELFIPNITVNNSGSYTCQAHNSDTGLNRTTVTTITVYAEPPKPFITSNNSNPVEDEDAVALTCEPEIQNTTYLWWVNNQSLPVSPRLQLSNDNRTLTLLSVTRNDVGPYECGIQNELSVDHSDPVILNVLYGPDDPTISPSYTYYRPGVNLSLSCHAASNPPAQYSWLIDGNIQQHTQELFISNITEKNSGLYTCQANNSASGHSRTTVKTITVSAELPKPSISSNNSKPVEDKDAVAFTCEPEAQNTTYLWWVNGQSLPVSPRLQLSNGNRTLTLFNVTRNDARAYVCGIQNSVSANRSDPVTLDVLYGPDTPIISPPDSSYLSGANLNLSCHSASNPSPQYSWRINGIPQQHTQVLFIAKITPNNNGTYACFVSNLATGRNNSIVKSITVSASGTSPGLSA
Protocol: (§1) The analysis by SPR was conducted using Biacore T200 (GE Healthcare Japan Corp.). 10 μg/mL human CEACAM5 (R&D Systems, Inc.) biotinylated with Biotin CAPture Kit, Series S (GE Healthcare Japan Corp.) and Biotin Labeling Kit-NH₂ (Dojindo Laboratories) was added to the surface of the sensor chip at a flow rate of 5 μL/min for 2 minutes, and immobilized thereonto. PB009-01, PB009-02, M5A-Fab and M5A-Fab-DFO were diluted with HBS-EP+ solution (GE Healthcare Japan Corp.) into 6 series at a 2-fold ratio from 400 nM, and 100 μL each was added to the channel at a flow rate of 50 μL/min. In this measurement system, the dissociation constant (KD) of PB009-01, PB009-02, M5A-Fab or M5A-Fab-DFO for human CEACAM5 was calculated using data analysis software (BIA Evaluation, GE Healthcare Japan Corp.). As a result, as shown in the table given below, the binding activity of M5A-Fab was attenuated by the binding of DFO, whereas the binding activity of PB009-01 was not attenuated by the binding of DFO.

[4] = target: T1, human CEACAM5 (R&D Systems, Inc.), …; assay: SPR (Biacore T200), biotinylated human CEACAM5 captured on chip, Fab conjugate as analyte
Protocol: In order to measure the detailed binding activity of PB009-02, analysis was conducted by SPR. In this Example, a Fab fragment of M5A (referred to as M5A-Fab), a humanized antibody of T84.66, was used as a comparative Fab fragment. M5A-Fab bound to DFO via a linker (referred to as M5A-Fab-DFO) was prepared by use of the method described in Example 2.
as §1

Kd [1]: 9600 pM
Molecule: M5A-Fab bound to DFO via a linker

Kd [3]: 170 pM
B1: anti-human CEACAM5 antibody Fab fragment PB009-01 (Fab, V domains shown)
VH: EVQLVESGGGLVQPGGSLRLSCAASGFNIRDTYMHWVRQAPGKGLEWVARIDPANGNSRYVPKFQGRFTISADTSRNTAYLQMNSLRAEDTAVYYCAPFGYYVSDYAMAYWGQGTLVTVSS
VL: DIQLTQSPSSLSASVGDRVTITCRAGESVDIFGVGFLHWYQQKPGKAPKLLIYRASNLESGIPSRFSGSGSRTDFTLTISSLQPEDFATYYCQQTNEDPYTFGQGTKVEIKR
notes: Humanized and redesigned from mouse anti-human CEACAM5 antibody T84.66

Continued, molecule first:

Molecule: Fab fragment of M5A, a humanized antibody of T84.66
Kd [2]: 160 pM

B2: PB009-02 (Fab fragment PB009-01 bound to DFO via a linker) (Fab, V domains shown)
VH: B1 VH
VL: B1 VL
modifications: DFO bound via linker -C(=S)-NH-(1,4-phenylene)-NH-C(=S)- (from p-SCN-Bn-DFO); at least 3 to 10 DFO ligands per Fab by mass spectrometry; modified residues and their split between the chains not …
notes: Chemical conjugate of PB009-01 with the chelator DFO
Kd [4]: 610 pM

From US20200123270A1 (Astellas, published 2020)
